Patent US11833164B2, “Methods of treating Fabry disease in patients having a mutation in the GLA gene” (Amicus Therapeutics, Inc., priority 2019, dated 2023)
Substitutions are numbered along the chain they refer to. Names may count otherwise.

B1: Y152S (protein)
chain: MQLRNPELHLGCALALRFLALVSWDIPGARALDNGLARTPTMGWLHWERFMCNLDCQEEPDSCISEKLFMEMAELMVSEGWKDAGYEYLCIDDCWMAPQRDSEGRLQADPQRFPHGIRQLANYVHSKGLKLGIYADVGNKTCAGFPGSFGYSDIDAQTFADWGVDLLKFDGCYCDSLENLADGYKHMSLALNRTGRSIVYSCEWPLYMWPFQKPNYTEIRQYCNHWRNFADIDDSWKSIKSILDWTSFNQERIVDVAGPGGWNDPDMLVIGNFGLSWNQQVTQMALWAIMAAPLFMSNDLRHISPQAKALLQDKDVIAINQDPLGKQGYQLRQGDNFEVWERPLSGLAWAVAMINRQEIGGPRSYTIAVASLGKGVACNPACFITQLLPVKRKLGFYEWTSRLRSHINPTGTVLLQLENTMQMSLKDLL
B2: T158A (protein)
chain: B1 chain with S152Y, T158A
B3: T158N (protein)
chain: B1 chain with S152Y, T158N
B4: A156G (protein)
chain: B1 chain with S152Y, A156G
B5: D153Y (protein)
chain: B1 chain with S152Y, D153Y
B6: Q157E (protein)
chain: B1 chain with S152Y, Q157E
B7: D153A (protein)
chain: B1 chain with S152Y, D153A
B8: Q157P (protein)
chain: B1 chain with S152Y, Q157P
B9: F159I (protein)
chain: B1 chain with S152Y, F159I
B10: D153V (protein)
chain: B1 chain with S152Y, D153V
B11: Q157L (protein)
chain: B1 chain with S152Y, Q157L
B12: D153H (protein)
chain: B1 chain with S152Y, D153H
B13: Q157K (protein)
chain: B1 chain with S152Y, Q157K
B14: T158S (protein)
chain: B1 chain with S152Y, T158S
B15: D153N (protein)
chain: B1 chain with S152Y, D153N
B16: T158I (protein)
chain: B1 chain with S152Y, T158I

test system: mutant form of α-Gal A expressed in HEK-293 cells; experiment: HEK assay (GLP HEK / Migalastat Amenability Assay): α-Gal A activity in lysates of transiently transfected HEK-293 cells incubated with or without 10 μM migalastat; type: cell-based, human; details: 10 μM migalastat versus baseline
Summary of the method: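 Activity reported as 4-MU released (nmol/mg/hr), mean±SEM, from lysates of transiently transfected HEK-293 cells expressing mutant α-Gal A, cultured with or without 10 μM migalastat.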

Molecule	Absolute increase (% WT)
B1	19.6 % WT
B2	28.7 % WT
B3	12.8 % WT
B4	16.9 % WT
B5	23.3 % WT
B6	24.1 % WT
B7	21.6 % WT
B8	40.6 % WT
B9	24.6 % WT
B10	25.0 % WT
B11	60.2 % WT
B12	20.5 % WT
B13	55.6 % WT
B14	19.8 % WT
B15	24.1 % WT
B16	18.8 % WT

same assay, conditions: 10 μM migalastat α-Gal A activity relative to baseline

Molecule	Relative increase
B1	1.7
B2	1.7
B3	3.1
B4	1.4
B5	1.8
B6	1.3
B7	1.4
B8	5.4
B9	1.4
B10	2.2
B11	5.1
B12	1.3
B13	3.2
B14	1.3
B15	1.3
B16	1.4

same assay, conditions: 10 μM migalastat, 5 days; percentage of baseline wild-type α-Gal A activity; mean ± SEM

Molecule	10 μM migalastat α-Gal A activity (% WT)
B1	46.7 ± 2.6 % WT
B2	67.3 ± 3.1 % WT
B3	18.2 ± 2 % WT
B4	63.6 ± 4.3 % WT
B5	52.4 ± 2.8 % WT
B6	101.5 ± 6.1 % WT
B7	81.6 ± 2.3 % WT
B8	49.6 ± 3.4 % WT
B9	89.3 ± 4.2 % WT
B10	42.4 ± 1.6 % WT
B11	74.4 ± 4.3 % WT
B12	81 ± 2.1 % WT
B13	79.7 ± 5 % WT
B14	99.1 ± 5.6 % WT
B15	89.7 ± 4.4 % WT
B16	67.8 ± 3.4 % WT

same assay, conditions: absence of migalastat; percentage of baseline wild-type α-Gal A activity; mean ± SEM

Molecule	Baseline α-Gal A activity (% WT)
B1	27.1 ± 1.7 % WT
B2	38.6 ± 2.5 % WT
B3	5.4 ± 0.2 % WT
B4	46.7 ± 2.7 % WT
B5	29.1 ± 3.1 % WT
B6	77.4 ± 4.1 % WT
B7	60.1 ± 2.4 % WT
B8	9 ± 1 % WT
B9	64.7 ± 3.5 % WT
B10	17.4 ± 2 % WT
B11	14.3 ± 1.5 % WT
B12	60.5 ± 2.2 % WT
B13	24.1 ± 1.8 % WT
B14	79.3 ± 4 % WT
B15	65.6 ± 2.8 % WT
B16	49 ± 2.7 % WT

same assay, conditions: lysates of HEK-293 cells transfected with the mutant form, incubated 5 days in the absence of migalastat; mean ± SEM

Molecule	Baseline α-Gal A activity
B1	9917 ± 917 nmol/mg/h
B2	14835 ± 1107 nmol/mg/h
B3	1906 ± 106 nmol/mg/h
B4	17406 ± 1187 nmol/mg/h
B5	12609 ± 1299 nmol/mg/h
B6	28269 ± 1306 nmol/mg/h
B7	22606 ± 1445 nmol/mg/h
B8	3887 ± 487 nmol/mg/h
B9	21543 ± 1754 nmol/mg/h
B10	7357 ± 1139 nmol/mg/h
B11	5734 ± 700 nmol/mg/h
B12	23578 ± 1741 nmol/mg/h
B13	9815 ± 1083 nmol/mg/h
B14	31043 ± 2073 nmol/mg/h
B15	29386 ± 1518 nmol/mg/h
B16	17360 ± 1159 nmol/mg/h

same assay, conditions: lysates of HEK-293 cells transfected with the mutant form, incubated 5 days with 10 μM migalastat; mean ± SEM

Molecule	10 μM migalastat α-Gal A activity
B1	16642 ± 1218 nmol/mg/h
B2	25678 ± 1673 nmol/mg/h
B3	5991 ± 499 nmol/mg/h
B4	23415 ± 1710 nmol/mg/h
B5	22535 ± 1174 nmol/mg/h
B6	37204 ± 2126 nmol/mg/h
B7	30854 ± 1997 nmol/mg/h
B8	20888 ± 1527 nmol/mg/h
B9	29402 ± 1960 nmol/mg/h
B10	16301 ± 766 nmol/mg/h
B11	28942 ± 2013 nmol/mg/h
B12	31052 ± 1774 nmol/mg/h
B13	31331 ± 2428 nmol/mg/h
B14	39060 ± 2937 nmol/mg/h
B15	39338 ± 1551 nmol/mg/h
B16	24097 ± 1695 nmol/mg/h
